Our source for the EC50 and Kd values is US20240200081A1, “NUCLEIC ACID MOLECULE CONJUGATE HAVING PROLONGED IN VIVO HALF-LIFE” (APTACURE THERAPEUTICS LIMITED, published 2024).

For series [1], the target named is sclerostin (UniProt Q9BQB4 Q9BQB4:24-213). Nature of the series: cell_activity; inhibition potency, TOP-Wnt luciferase reporter. To be noted: tags: expressed from transfected sclerostin plasmid in MC3T3-E1 cells. The protocol: To study the inhibition potency of aptamers against sclerostin's antagonistic effect on Wnt signaling, a TOP-Wnt induced luciferase reporter assay was used in osteoblast MC3T3-E1 cells (van Bezooijen, Svensson et al. 2007, Shum, Chan et al. 2011).
MC3T3-E1 cells were seeded in 24-well plates and cells were transfected with corresponding reporter plasmid (100 ng), Wnt3a plasmid (800 ng) and sclerostin plasmid (800 ng) as necessary using FuGENE HD transfection reagent (Promega) in the following day. 10 hours after transfection, culture medium was changed to fresh medium and cells were treated with aptamers/antibody. 24 hours after treatment, each well of cells was lysed with 100 μl passive lysis buffer and 20 μl was taken for analysis. The Luciferase Assay Reagent II and Stop & Glo Reagent were prepared and added automatically by SpectraMax i3x Multi-Mode Detection Platform (Molecular Device) according to the manufacturer's protocol (Promega) and data was analyzed accordingly (Grentzmann, Ingram et al. 1998, McNabb, Reed et al. 2005).

Series [2] deals with sclerostin (Homo sapiens, UniProt Q9BQB4 SEQ:1-190). Briefly: ELONA; PBS, 1 mM MgCl2, RT; p158 prints 3' end as CT GCCC, APC001 as U G C C. The settings on record: tags: His6 (SELEX protein); recombinant human sclerostin. How it is done: An Enzyme-linked OligoNucleotide Assay (ELONA) was performed to determine the binding affinity of the aptamer candidates to sclerostin (Drolet, Moon-McDermott et al. 1996). Similarly, an Enzyme-linked ImmunoSorbent Assay (ELISA) was performed to determine the binding affinity of anti-sclerostin antibody to human sclerostin (Engvall and Perlmann 1971). 160 ng purified recombinant human sclerostin was coated to 96-well microtiter plate in 100 μl PBS by incubating at 4° C. overnight. The plate was then blocked with blocking buffer (PBS, 0.1% Tween 20 and 1% BSA) for 1 h at room temperature and washed with SELEX B&W buffer (PBS, 1mM MgCl2, 0.1% Tween 20 and 0.1% BSA) for 4 times. The aptamer candidates were denatured at 95° C. for 10 min and rapidly cooled on ice for 10 min before use. Appropriate concentrations of biotinylated aptamers/antibody were added into each well, then added SELEX B&W buffer to 100 μl and incubated for 45 min at room temperature with continuous gentle shaking. After binding, the plate was washed with SELEX B&W buffer for 4 times to remove non-specific and very weak binding, followed by washing with PBST+0.1% BSA for 4 times. […] Absorbance at 450 nm was measured with microplate reader (Stoltenburg, Krafcikova et al. 2016). Data was analyzed with Origin software (OriginLab, Northampton, MA). […]
Sequence of sclerostin (Homo sapiens, UniProt Q9BQB4 SEQ:1-190) (Q9BQB4 24-213): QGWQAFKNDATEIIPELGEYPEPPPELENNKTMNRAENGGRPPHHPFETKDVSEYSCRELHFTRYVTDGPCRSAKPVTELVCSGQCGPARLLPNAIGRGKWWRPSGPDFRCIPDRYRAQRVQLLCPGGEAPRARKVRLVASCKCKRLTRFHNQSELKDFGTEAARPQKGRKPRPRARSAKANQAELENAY

Sequence of sclerostin (UniProt Q9BQB4 Q9BQB4:24-213) (Q9BQB4 24-213, one chain of several): as the sequence (Q9BQB4 24-213) above

For CGGGGTGTGGGTTCGTCGTTAGCTTGATTTGGCAGCTGCC (ssDNA, 2'-OMe on first 4 (CGGG) and last 4 nucleotides; 3' idT) [modified aptscl 56], the EC50 (commonly the concentration giving half of the maximal effect) in series [1] is 14 µg/mL. Also, the Kd (in general, a measure of binding affinity in units of concentration) in series [2] was found to be 6.55 nM.
